Molecular target: the molecule itself
Assay: SEC; Superdex-200, L1 eluted from the glutathione column after thrombin cleavage; step: L1 chains to pentamer

B1: full-length HPV16 L1 (natural protein)
chain: MSLWLPSEATVYLPPVPVSKVVSTDEYVARTNIYYHAGTSRLLAVGHPYFPIKKPNNNKILVPKVSGLQYRVFRIHLPDPNKFGFPDTSFYNPDTQRLVWACVGVEVGRGQPLGVGISGHPLLNKLDDTENASAYAANAGVDNRECISMDYKQTQLCLIGCKPPIGEHWGKGSPCTNVAVNPGDCPPLELINTVIQDGDMVDTGFGAMDFTTLQANKSEVPLDICTSICKYPDYIKMVSEPYGDSLFFYLRREQMFVRHLFNRAGAVGENVPDDLYIKGSGSTANLASSNYFPTPSGSMVTSDAQIFNKPYWLQRAQGHNNGICWGNQLFVTVVDTTRSTNMSLCAAISTSETTYKNTNFKEYLRHGEEYDLQFIFQLCKITLTADVMTYIHSMNSTILEDWNFGLQPPPGGTLEDTYRFVTSQAIACQKHTPPAPKEDPLKKYTFWEVNLKEKFSADLDQFPLGRKFLLQAGLKAKPKFTLGKRKATPTTSSTSTTAKRKKRKL
notes: major capsid protein L1 of human papillomavirus type 16, full-length clone in pGEX-2T; Purified as pentamers; forms T = 7 particles in assembly buffer; also called wild-type L1; major capsid L1 protein; source: E. coli, expressed as GST-L1 fusion from pGEX-2T, glutathione column, cleaved with thrombin, Superdex-200; not shown: GST, N-terminal, cleaved
- stoichiometry N: 5

Source: paper PMC1781933, “Structure-based engineering of papillomavirus major capsid L1: controlling particle assembly” (Virology Journal, 2007)
